According to patent US20220143136A1, “USE OF ANNEXINS IN PREVENTING AND TREATING MUSCLE MEMBRANE INJURY” (NORTHWESTERN UNIVERSITY, priority 2018, published 2022):

B1: A6D149A: annexin A6 D149A mutant, plasmid expressed (protein, UniProt P14824 2-673, looked up, variant D149A)
Annexin A6: AKIAQGAMYRGSVHDFPEFDANQDAEALYTAMKGFGSDKESILELITSRSNKQRQEICQNYKSLYGKDLIEDLKYELTGKFERLIVNLMRPLAYCDAKEIKDAISGVGTDEKCLIEILASRTNEQMHQLVAAYKDAYERDLESDIIGATSGHFQKMLVVLLQGTRENDDVVSEDLVQQDVQDLYEAGELKWGTDEAQFIYILGNRSKQHLRLVFDEYLKTTGKPIEASIRGELSGDFEKLMLAVVKCIRSTPEYFAERLFKAMKGLGTRDNTLIRIMVSRSELDMLDIREIFRTKYEKSLYSMIKNDTSGEYKKALLKLCGGDDDAAGQFFPEAAQVAYQMWELSAVSRVELKGTVCAANDFNPDADAKALRKAMKGIGTDEATIIDIVTHRSNAQRQQIRQTFKSHFGRDLMADLKSEISGDLARLILGLMMPPAHYDAKQLKKAMEGAGTDEKTLIEILATRTNAEIRAINEAYKEDYHKSLEDALSSDTSGHFRRILISLATGNREEGGENRDQAQEDAQVAAEILEIADTPSGDKTSLETRFMTVLCTRSYPHLRRVFQEFIKKTNYDIEHVIKKEMSGDVKDAFVAIVQSVKNKPLFFADKLYKSMKGAGTDEKTLTRVMVSRSEIDLLNIRREFIEKYDKSLHQAIEGDTSGDFMKALLALCGGED
modifications: GFP tag
notes: annexin A6 D149A mutant, plasmid expressed
B2: annexin A1: annexin A1 with carboxyl-terminal turboGFP or tdTomato tag, expressed from plasmid in myofibers (protein, UniProt P10107 2-346, looked up)
Annexin A1: AMVSEFLKQARFLENQEQEYVQAVKSYKGGPGSAVSPYPSFNVSSDVAALHKAIMVKGVDEATIIDILTKRTNAQRQQIKAAYLQENGKPLDEVLRKALTGHLEEVVLAMLKTPAQFDADELRGAMKGLGTDEDTLIEILTTRSNEQIREINRVYREELKRDLAKDITSDTSGDFRKALLALAKGDRCQDLSVNQDLADTDARALYEAGERRKGTDVNVFTTILTSRSFPHLRRVFQNYGKYSQHDMNKALDLELKGDIEKCLTTIVKCATSTPAFFAEKLYEAMKGAGTRHKALIRIMVSRSEIDMNEIKVFYQKKYGISLCQAILDETKGDYEKILVALCGGN
modifications: C-terminal turboGFP or tdTomato tag
notes: annexin A1 with carboxyl-terminal turboGFP or tdTomato tag, expressed from plasmid in myofibers
B3: annexin A1 D171A: Ca2+-binding mutant of annexin A1 (D171A), plasmid expressed (protein, UniProt P10107 2-346, looked up, variant D171A)
Annexin A1: AMVSEFLKQARFLENQEQEYVQAVKSYKGGPGSAVSPYPSFNVSSDVAALHKAIMVKGVDEATIIDILTKRTNAQRQQIKAAYLQENGKPLDEVLRKALTGHLEEVVLAMLKTPAQFDADELRGAMKGLGTDEDTLIEILTTRSNEQIREINRVYREELKRDLAKDITSATSGDFRKALLALAKGDRCQDLSVNQDLADTDARALYEAGERRKGTDVNVFTTILTSRSFPHLRRVFQNYGKYSQHDMNKALDLELKGDIEKCLTTIVKCATSTPAFFAEKLYEAMKGAGTRHKALIRIMVSRSEIDMNEIKVFYQKKYGISLCQAILDETKGDYEKILVALCGGN
modifications: GFP tag
B4: annexin A2: annexin A2 with carboxyl-terminal turboGFP or tdTomato tag, expressed from plasmid in myofibers (protein, UniProt P07356 2-339, looked up)
Annexin A2: STVHEILCKLSLEGDHSTPPSAYGSVKPYTNFDAERDALNIETAVKTKGVDEVTIVNILTNRSNVQRQDIAFAYQRRTKKELPSALKSALSGHLETVILGLLKTPAQYDASELKASMKGLGTDEDSLIEIICSRTNQELQEINRVYKEMYKTDLEKDIISDTSGDFRKLMVALAKGRRAEDGSVIDYELIDQDARELYDAGVKRKGTDVPKWISIMTERSVCHLQKVFERYKSYSPYDMLESIKKEVKGDLENAFLNLVQCIQNKPLYFADRLYDSMKGKGTRDKVLIRIMVSRSEVDMLKIRSEFKRKYGKSLYYYIQQDTKGDYQKALLYLCGGDD
modifications: C-terminal turboGFP or tdTomato tag
notes: annexin A2 with carboxyl-terminal turboGFP or tdTomato tag, expressed from plasmid in myofibers
B5: A2D161A: Ca2+-binding mutant of annexin A2 (D161A), plasmid expressed (protein, UniProt P07356 2-339, looked up, variant D161A)
Annexin A2: STVHEILCKLSLEGDHSTPPSAYGSVKPYTNFDAERDALNIETAVKTKGVDEVTIVNILTNRSNVQRQDIAFAYQRRTKKELPSALKSALSGHLETVILGLLKTPAQYDASELKASMKGLGTDEDSLIEIICSRTNQELQEINRVYKEMYKTDLEKDIISATSGDFRKLMVALAKGRRAEDGSVIDYELIDQDARELYDAGVKRKGTDVPKWISIMTERSVCHLQKVFERYKSYSPYDMLESIKKEVKGDLENAFLNLVQCIQNKPLYFADRLYDSMKGKGTRDKVLIRIMVSRSEVDMLKIRSEFKRKYGKSLYYYIQQDTKGDYQKALLYLCGGDD
modifications: GFP tag

What was measured:
myofibers [1] = assay: Annexin repair cap formation after laser injury at multiple Ca2+ concentrations; format: cell-based, mouse; conditions: for repair cap diameter (DMAX) / cap size of the co-expressed wildtype annexin of the same type: wildtype+mutant vs wildtype+wildtype co-electroporation (homotypic); for Km1/2 (repair cap area as a function of Ca2+ concentration): Ca2+ 0-2 mM, modified Hill equation; for wildtype annexin A6 cap size with co-expressed mutant annexin A1 or A2: heterotypic co-expression
Method: (§1) Electroporation, myofiber isolation, laser injury, cap and vesicle measurement. Flexor digitorum brevis (FDB) fibers were transfected with endo-free plasmid DNA by in vivo electroporation. Methods were described previously in (Demonbreun and McNally, 2015; Demonbreun et al., 2016b; DiFranco et al., 2009). Z-stack projections were acquired from consecutive acquisitions after the final time-lapse frame, approximately 4 minutes post damage, with a […] step size between slices. Z-stack renderings were constructed in FIJI. Measurement of the cap area and feret diameter were conducted from a single slice near the middle of the z-stack using FIJI imaging tools. Fibers expressing similar levels of tagged or GCaMP5G protein were compared. GCaMP5G Ca^2+ fluorescence was measured from the acquired timelapse images, using a standard rectangular ROI, placed inside the myofiber below the site of damage using FIJI. Fluorescence was expressed as F/F0. External vesicle number and GCaMP5G area were measured from endpoint z-stacks and max projection images using FIJI. Vesicles were considered external if they were found outside the sarcolemma assessed in brightfield and fluorescent channels. All measurements were acquired from myofibers isolated from at least n≥3 mice, n≥3 myofibers per mouse.
Calcium kinetics. FDB muscle was electroporated and isolated as described above. Myofibers were damaged in Ringers solution with Ca^2+ concentrations of 2 mM, 1 mM, 0.5 mM, 0.25 mM, 0.175 mM, 0.1 mM, 0.050 mM, and 0 mM. EDTA was added as a Ca^2+ chelating agent in only in the 0 mM Ca^2+ Ringers. Myofibers were isolated directly into 2 mM, 1 mM and 0.5 mM Ringers for those experiments respectively. For experiments using less than 0.5 mM Ca^2+ myofibers were isolated in 0.5 mM Ca^2+ Ringers and then diluted with 0 mM EDTA-free Ca^2+ Ringers. For 0 mM experiments, myofibers were isolated in 0.5 mM Ca^2+ Ringers and then replaced with 0 mM Ca^2++EDTA Ringers just prior to imaging. Co-electroporation of wildtype annexin+wildtype annexin constructs was performed in one mouse foot, while the contralateral foot was co-electroporated with wildtype annexin+mutant annexin. All measurements were acquired from myofibers isolated from at least n≥2 mice, n≥3 myofibers per mouse at each Ca^2+ concentration. Area-Ca^2+ curves were fitted with a Hill Curve at Ca^2+ concentrations ranging from 0-2 mM. Kinetic parameters were calculated using Prism Graphpad.
as §1, with “(Demonbreun A R, Quattrocelli M, Barefield D Y, Allen M V, Swanson K E,” for “(Demonbreun”, “McNally E M. An actin-dependent annexin complex mediates plasma membrane repair in muscle. The Journal of cell biology. 2016; 213(6):705-18; Demonbreun A R, and McNally E M. DNA Electroporation, Isolation and Imaging of Myofibers. Journal of visualized experiments: JoVE.” for “McNally,”, “106(106):e53551;” for “Demonbreun et al., 2016b;”, “M, Quinonez M, Capote J, and Vergara J. DNA transfection of mammalian skeletal muscles using in vivo electroporation. Journal of visualized experiments: JoVE. 2009; 32(32)).” for “et al., 2009).”, “Vesicles were considered external if they were found outside the sarcolemma assessed in brightfield and fluorescent channels. All measurements were acquired from myofibers isolated from at least n≥3 mice, n≥3 myofibers per mouse.” left out

myofibers [2] = assay: Bleb formation and intracellular Ca2+ fluorescence (GCaMP5G, Fluo-4) after laser injury with annexin overexpression; format: cell-based, mouse; conditions: for internal GCaMP5G Ca2+ fluorescence at the site of injury: vs GCaMP5G alone
Method: as §1
as §1, with “(Demonbreun A R, Quattrocelli M, Barefield D Y, Allen M V, Swanson K E,” for “(Demonbreun”, “McNally E M. An actin-dependent annexin complex mediates plasma membrane repair in muscle. The Journal of cell biology. 2016; 213(6):705-18; Demonbreun A R, and McNally E M. DNA Electroporation, Isolation and Imaging of Myofibers. Journal of visualized experiments: JoVE.” for “McNally,”, “106(106):e53551;” for “Demonbreun et al., 2016b;”, “M, Quinonez M, Capote J, and Vergara J. DNA transfection of mammalian skeletal muscles using in vivo electroporation. Journal of visualized experiments: JoVE. 2009; 32(32)).” for “et al., 2009).”
Calcium and pH indicator dye measurements. Wildtype FDBs were isolated and plated in Ringers on Matek glass-bottom dishes as described above. Twenty minutes prior to imaging, myofibers were loaded with Fluo-4 AM at 37° C. (F10489, ThermoFisher Scientific, Waltham, Mass.) or pHrodo AM (P35373, ThermoFisher Scientific, Waltham, Mass.) as described in the instruction manual. Fibers were rinsed once with Ringers then subsequently damaged and imaged on the Nikon A1R GaSP, as described above. Fluorescence intensity was measured using FIJI (NIH). phRodo change in fluorescence intensity was calculated as F/F0. Data was acquired from n=3 mice per experiment from multiple myofibers per mouse. […]

[3] = fluorescently tagged annexin expressed in myofibers

Molecule | repair cap diameter (DMAX) / cap size of the co-expressed wildtype annexin of the same type (myofibers [1]) | internal GCaMP5G Ca2+ fluorescence at the site of injury (myofibers [2]; over 240 seconds of imaging) | Km1/2 (repair cap area as a function of Ca2+ concentration) (myofibers [1]; [3]) | wildtype annexin A6 cap size with co-expressed mutant annexin A1 or A2 (myofibers [1]) | other results
B1 | little effect | – | – | – | –
B2 | – | significant reduction | 0.17 mM | – | –
B3 | significantly reduced | – | – | minimal effect | –
B4 | – | significant reduction | 0.067 mM | – | number of extracellular (GCaMP5G-positive) blebs at the membrane lesion (myofibers [2]; annexin overexpression vs annexin A1 overexpression or GCaMP5G alone): significantly more blebs; internal GCaMP5G Ca2+ fluorescence at the site of injury (myofibers [2]; first 20 seconds post injury): significant reduction; lowest Ca2+ concentration at which a discernable repair cap formed (myofibers [1]; [3]): 0.05 mM
B5 | significantly reduced | – | – | minimal effect | –
